# According to publication PMC5507929, “Structural and Biochemical Characterization of Apicomplexan Inorganic Pyrophosphatases” (Scientific Reports, 2017):
# Where “and” joins values, the source holds several entries; their conditions need not be identical. Equal entries are not always repeated.
# T1: PfPPase (Plasmodium falciparum, UniProt O77392)
# T1 construct: gene MAL3P6.3
# T1 sequence (O77392 1-380): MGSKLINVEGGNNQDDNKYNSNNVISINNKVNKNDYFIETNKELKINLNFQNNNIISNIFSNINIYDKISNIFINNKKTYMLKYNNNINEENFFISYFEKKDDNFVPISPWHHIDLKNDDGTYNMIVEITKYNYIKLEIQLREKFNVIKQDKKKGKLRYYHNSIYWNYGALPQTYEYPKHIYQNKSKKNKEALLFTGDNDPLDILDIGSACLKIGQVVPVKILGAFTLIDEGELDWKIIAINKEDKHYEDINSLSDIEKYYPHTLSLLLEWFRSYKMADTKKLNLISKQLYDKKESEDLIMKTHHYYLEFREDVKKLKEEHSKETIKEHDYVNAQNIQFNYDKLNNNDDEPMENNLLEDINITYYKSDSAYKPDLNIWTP
# B1: PfPPase (Plasmodium falciparum 3D7) (protein)
# chain: T1 sequence (O77392 1-380)
# notes: full length 1-380, pETM41, MBP-6xHis tag cleaved with TEV, E. coli BL21-CodonPlus; ~45 kDa, dimer; crystal protein Se-Met labelled
# Legend:
# [1] = molecular target: Toxoplasma gondii soluble inorganic pyrophosphatase (TgPPase) (Toxoplasma gondii); assay: SEC; TgPPase in solution (Supplementary Figure 1b); the sentence names no method; gel filtration analysis is named in p-0022
# [2] = molecular target: Plasmodium falciparum soluble inorganic pyrophosphatase (PfPPase), full length (Plasmodium falciparum); assay: native gel or EMSA; blue native PAGE of purified recombinant PfPPase from E. coli
# [3] = molecular target: Plasmodium falciparum soluble inorganic pyrophosphatase (PfPPase), full length (Plasmodium falciparum); assay: SEC; gel permeation chromatography on S-200 16/60; 30 mM HEPES-Na pH 7.2, 100 mM NaCl, 1 mM DTT; absorbance at 280 nm, compared with Mwt markers
# PfPPase = molecular target: T1, PfPPase; conditions: active site (P1 phosphate position), chains B and C; Se-Met protein crystallised with 1 mM PPi and 3 mM MgCl2
# [4] = substrate: O=P(O)(O)OP(=O)(O)OP(=O)(O)O; assay: malachite green phosphate release assay; format: biochemical, Plasmodium falciparum; conditions: 1 mM Zn2+, pH 7.0, 37 °C, 100 mM NaCl, pH 7.0
# Source text: (§1) malachite green phosphate release assay on PfPPase
# [5] = substrate: O=P(O)(O)OP(=O)(O)O; assay: malachite green phosphate release assay; format: biochemical, Plasmodium falciparum; conditions: 3 mM Mg2+, pH 7.2, 37 °C, 100 mM NaCl, 1.4 nM enzyme, pH 7.2
# Source text: as §1
# [6] = substrate: Nc1ncnc2c1ncn2[C@@H]1O[C@H](COP(=O)(O)OP(=O)(O)OP(=O)(O)O)[C@@H](O)[C@H]1O; assay: malachite green phosphate release assay; format: biochemical, Plasmodium falciparum; conditions: 1 mM Zn2+, pH 7.2, 37 °C, 100 mM NaCl, pH 7.2
# Source text: as §1
molecule,measurement,setting,value
Toxoplasma gondii soluble inorganic pyrophosphatase (TgPPase) (enzyme),stoichiometry N,[1],2
"Plasmodium falciparum soluble inorganic pyrophosphatase (PfPPase), full length (enzyme)",stoichiometry N,[2],2
same,stoichiometry N,[3],2 and 4
O=P(O)(O)O [Pi],"X-ray crystal structure, 3.2 Å",PfPPase,PfPPase active site showed electron density for only one Pi molecule
B1,Km,[4],1.6 ± 0.3 µM
same,kcat,[4],26.3 ± 3 s⁻¹
same,kcat/Km,[4],1.6e+07 M⁻¹ s⁻¹
same,Km,[5],10 ± 1.8 µM
same,kcat,[5],266 ± 11.4 s⁻¹
same,kcat/Km,[5],2.66e+07 M⁻¹ s⁻¹
same,Km,[6],64 ± 4.2 µM
same,kcat,[6],6.3 ± 1.2 s⁻¹
same,kcat/Km,[6],90000 M⁻¹ s⁻¹
